Measurements reported in PMC8809534, “Gating choreography and mechanism of the human proton-activated chloride channel ASOR” (Science Advances, 2022).

Target: the molecule itself
Experiment: cryo-EM structure; single-particle cryo-EM of purified ASOR at pH 7.5 (digitonin, GDN or saposin nanodiscs) and at pH 4.5 (GDN or saposin nanodiscs; sodium citrate added); 5 mM Hepes, 150 mM NaCl; C3 symmetry; resting, activated and desensitized conformations

B1: human ASOR (TMEM206) proton-activated chloride channel (natural protein)
chain: not shown
notes: full-length human ASOR (TMEM206), UniProt Q9H813; codon-optimised synthetic cDNA; GFP tag removed with PreScission protease; residues left by the cleavage site are not described; also called PAC; acid-sensitive outwardly rectifying channel; not shown: GFP, C-terminal, cleaved
In the case of B1, the “stoichiometry N” value is reported as 3.
